Measured values as given in patent US20240091270A1.

Target: murine CD47 on mouse pancreatic beta islet cells (MIN6) (murine) (UniProt Q61735)
Experiment: cell-based or functional assay

Sequence of UniProt Q61735 (Q61735 19-303): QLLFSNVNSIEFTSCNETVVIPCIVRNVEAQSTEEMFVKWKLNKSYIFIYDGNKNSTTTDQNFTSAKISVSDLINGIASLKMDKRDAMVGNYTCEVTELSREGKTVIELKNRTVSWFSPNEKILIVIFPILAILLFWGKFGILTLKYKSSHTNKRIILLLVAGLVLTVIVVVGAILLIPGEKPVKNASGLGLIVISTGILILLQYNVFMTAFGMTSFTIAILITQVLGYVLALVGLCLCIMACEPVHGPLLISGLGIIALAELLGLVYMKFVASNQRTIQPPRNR

“anti-CD47 blocking antibody (clone MIAP301, SC-12731, Santa Cruz Inc.)” showed a relative increase in insulin protein content in glucose stimulated mouse pancreatic beta islet cells relative to vinculin (SDS-PAGE band density) greater than 2 fold.
